Test [1] concerns the target T1, mouse IL-13 (mouse, UniProt P20109 22-131, limits assumed).
T1 construct: also called murine IL-13
T1 sequence (looked up): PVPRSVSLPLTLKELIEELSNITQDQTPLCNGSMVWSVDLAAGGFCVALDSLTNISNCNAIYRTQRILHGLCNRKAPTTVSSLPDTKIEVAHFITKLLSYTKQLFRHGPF
The test is described as follows: epitope mapping with mouse IL-13 chimeric molecules (ELISA). On the technique in general: In an ELISA, binding on a coated surface is turned into a signal by an enzyme label.

The target of test [2] is T2, human IL-13 (source not stated for the assay) (human, UniProt P35225 35-146, limits assumed). Kind of test: cell-based or functional assay.
Test [3] concerns the target T3, Recombinant Human IL-13 (R & D 213-IL-005) (human, UniProt P35225 35-146).
T3 construct: also called IL-13 antigen (R&D Systems)
The test is described as follows: SPR (Biacore 2000), mAb captured on goat anti-human surface, IL-13 (R&D) injected, 1:1 model.

The target of test [4] is T4, 693 phage.
T4 peptide: YKIGEPHKDTYM
The test is described as follows: Panning of mAb 693 against a 12-mer random peptide library expressed on phage, two rounds.

Test [5] addresses T5, Human IL-13-Mouse IL-13 Helix D (human IL-13 with mouse Helix D).
T5 construct: Expressed and secreted chimeric protein; also called Mo HelixD
T5 chain: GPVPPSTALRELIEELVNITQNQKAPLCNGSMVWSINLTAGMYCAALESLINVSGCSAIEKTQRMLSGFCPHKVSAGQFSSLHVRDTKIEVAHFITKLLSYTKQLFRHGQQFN
The test is described as follows: ELISA on secreted IL-13 chimeric proteins.

The target in test [6] is T6, Human IL-13-Mouse IL-13 Helix C (human IL-13 with mouse Helix C, UniProt P35225 35-146, limits assumed).
T6 construct: Expressed and secreted chimeric protein; also called Mo HelixC
T6 chain: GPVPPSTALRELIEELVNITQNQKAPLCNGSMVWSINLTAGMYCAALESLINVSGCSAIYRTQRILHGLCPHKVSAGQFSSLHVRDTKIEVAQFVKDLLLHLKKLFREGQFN
Kind of test: ELISA on secreted IL-13 chimeric proteins.

Test [7] deals with T7, Human IL-13-Mouse IL-13 Helix B (human IL-13 with mouse Helix B, UniProt P35225 35-146, limits assumed).
T7 construct: Expressed and secreted chimeric protein; also called Mo HelixB
T7 chain: T6 chain with M42G, Y43F, A45V, E48D, I51T, Y60E, R61K, I65M, H67S, L69F
The test is described as follows: ELISA on secreted IL-13 chimeric proteins.

Test [8] has as its target T2, human IL-13 (source not stated for the …). The test is described as follows: cell-based or functional assay. The source holds these as a separate data set.
In test [9] the target is T3, Recombinant Human IL-13 (R & D …). The test is described as follows: SPR (Biacore 2000) high resolution, mAb captured on goat anti-human Fc pAb, IL-13 (R&D Systems) 12.6-0.394 nM, 23 C, global 1:1 fit. (In general: Surface plasmon resonance follows binding to a sensor surface in real time, without labels.)
The target in test [10] is T8, native macaque IL-13 (macaque monkey).
T8 construct: also called macaque monkey IL-13
The test is described as follows: KinExA, equilibrium in solution. (In general: Kinetic exclusion samples the free partner from a solution-phase mixture.)

Test [11] concerns the target T9, Human IL-13-rabbit Fc fusion protein (human IL-13 fused to rabbit Fc).
T9 construct: also called IL-13-RbFc; IL-13 Rb Fc
The test is described as follows: ELISA on plates coated with IL-13RbFc, detection with rabbit anti Hu IgG Fc HRP (paragraph 267 to paragraph 269).

The target of test [12] is marmoset IL-13 (marmoset, UniProt A0A8I3WT33 35-145). Kind of test: KinExA, n-curve analysis.
Test [13] has as its target T10, native human IL-13 (human, UniProt P35225 35-146, limits assumed).
T10 construct: also called hIL-13
The test is described as follows: KinExA kinetic, direct method; koff calculated from kon and KD.

For test [14], the target named is T10, native human IL-13. The test is described as follows: KinExA kinetic, injection method; koff calculated from kon and KD.
Test [15] addresses T10, native human IL-13. Kind of test: KinExA kinetic, direct method.
The target of test [16] is T10, native human IL-13. The test is described as follows: KinExA, equilibrium in solution.
For test [17], the target named is T2, human IL-13 (source not stated for the …). The test is described as follows: cell-based or functional assay. This is another data set of the same source.
Test [18] concerns the target T10, native human IL-13. Kind of test: KinExA; KD from the equilibrium experiments, printed in the kinetic table (injection method row).
Test [19] concerns the target T10, native human IL-13. Kind of test: KinExA kinetic, injection method.
The target of test [20] is T10, native human IL-13. Kind of test: KinExA; KD from the equilibrium experiments, printed in the kinetic table (direct method row); KinExA kinetic, direct method row; KD taken from the equilibrium experiments.

Substitutions are numbered along the chain they refer to. “And” between values parts separate entries of the source, which are not always exact repeats. Equal entries are not always repeated.

T9 sequence (chain, as listed by the source limits assumed): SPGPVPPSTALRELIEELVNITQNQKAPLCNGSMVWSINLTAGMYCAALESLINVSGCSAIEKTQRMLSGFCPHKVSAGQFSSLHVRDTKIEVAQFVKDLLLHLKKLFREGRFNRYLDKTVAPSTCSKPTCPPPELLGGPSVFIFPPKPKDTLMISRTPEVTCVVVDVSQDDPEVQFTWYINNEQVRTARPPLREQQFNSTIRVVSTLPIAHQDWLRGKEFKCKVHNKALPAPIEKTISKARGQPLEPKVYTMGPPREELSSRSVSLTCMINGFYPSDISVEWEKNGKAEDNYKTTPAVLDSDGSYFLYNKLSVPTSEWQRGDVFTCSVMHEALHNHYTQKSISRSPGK
T8 sequence (Q864V6 19-132): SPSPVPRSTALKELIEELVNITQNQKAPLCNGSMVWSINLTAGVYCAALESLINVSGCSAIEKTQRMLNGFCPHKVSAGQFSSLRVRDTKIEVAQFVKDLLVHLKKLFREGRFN
Sequence of marmoset IL-13 (A0A8I3WT33 entry or part of it): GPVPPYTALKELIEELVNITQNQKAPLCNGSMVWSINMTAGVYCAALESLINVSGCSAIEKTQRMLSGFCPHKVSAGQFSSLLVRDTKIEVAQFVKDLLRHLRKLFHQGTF

B1: mAb 693 (antibody, V domains shown)
VH: QVQLQESGPGLVKPSETLSLTCSVSGGSISSYYWSWIRQPAGKGLEWIGRIYMTGRTNYNSSLKSRVTMSIDTSKNQLSLKLSFMTAADTAVYYCARESGSSYSYDYWGQGTLVTVSS
VL: SYVLTQPPSVSVAPGQTARITCGGNNIGSKGVHWYQQKPGQAPVLVVYDDSDRPSGIPERFSGSNSGNTATLTISRVEAGDEADYYCQVWVSSSDHHVVFGGGTKLTVV
notes: also called sc693
On to B1, for which the binding result in test [1] was “no binding”. Moreover, in [2], the “IC50, IL-13 induced eotaxin release, Average” value (from here on “IC50 … Average”) was determined as 0.054 nM; the “IC50, IL-13 induced eotaxin release, n = 1” value (shortened to “IC50 … n = 1”) was determined as 0.038 nM; the “IC50, IL-13 induced eotaxin release, n = 2” value (from here on “IC50 … n = 2”) is 0.069 nM; the “IC50, IL-13 induced eotaxin release, n = 3” value (“IC50 … n = 3” for short) worked out at 0.053 nM. Moreover, in [3], the Kd was 0.189 nM and 0.109 nM; the koff was 0.00038 s⁻¹ and 0.00027 s⁻¹; the association rate constant (kon) is 2e+06 M⁻¹ s⁻¹ and 2.5e+06 M⁻¹ s⁻¹. For the same molecule, the binding result in test [4] was “binds”. In test [5], the binding result is reported as “no binding”. Further, the binding result in test [6] is “binds”. Moreover, the binding result in test [7] is recorded as “binds”.

B2: mAb 623 (antibody, V domains shown)
VH: EVQLVESGGGLVKPGGSLRLSCAASGFTFSNAWMSWVRQAPGKGLEWVGRIRSEIDGGTTNYAAPVKGRFTISRDDSKNTLYLQMNSLKTEDTAVYYCATDQVGAYYGDYYGMDVWGQGTTVTVSS
VL: SYELTQPPSVSVSPGQTARITCSGDALPEKYAYWYQQKSGQAPVLVIYEDSKRPSGIPERFSGSSSGTMATLTISGAQVEDEADYYCHSTDSSGNHGVFGGGTKLTVLG
notes: also called sc623
With B2, the “EC50, HDLM-2 proliferation assay (3H-thymidine)” value in test [8] was found to be 4.5 nM. Also, the “EC50, L-1236 proliferation assay (3H-thymidine)” value in test [8] was 0.39 nM. For the same molecule, in test [8], the “IC50, IL-13-induced CD23 expression on whole blood B cells (FACS)” value was determined as 6.2 nM. Besides, the Kd came out at 0.034 nM in test [9]; 0.037 nM in [10]; 0.403 nM in [12]; 0.024 nM in test [16]; 0.052 nM in [3]; 0.024 nM in [18]. For the same molecule, in [20], the Kd was 0.024 nM. For the same molecule, the association rate constant (kon) in test [9] is 7.3e+06 M⁻¹ s⁻¹; in [15] it was 1.1e+07 M⁻¹ s⁻¹; in test [3] it was 4.9e+06 M⁻¹ s⁻¹; in test [19], 1.5e+07 M⁻¹ s⁻¹. The binding result is on record as “no binding” in test [1], “binds” in test [11], “binds” in [6] and “binds” in test [7]. Also, the “IC50 … Average” value in [2] was found to be 0.036 nM. In test [2], the “IC50 … n = 1” value was 0.031 nM. Also, in test [2], the “IC50 … n = 2” value turned out to be 0.04 nM. In [2], the “IC50 … n = 3” value amounted to 0.035 nM. In addition, the koff in test [13] was 0.00027 s⁻¹; in test [14], 0.00036 s⁻¹; in test [3] it was 0.00025 s⁻¹. Also, in [17], the “IC50, eotaxin production by HDFa cells, 300 pM IL-13” value worked out at 56 pM. Also, the “IC50, eotaxin production by HDFa cells, 600 pM IL-13” value in [17] came to 113 pM.

B3: mAb 785 (antibody, V domains shown)
VH: not shown
VL: SYVLTQPPSVSVAPGQTARITCGGNNIGNKIVHWYQQKPGQAPVLVVYDDSDRPSGIPERFSGSNSGNTATLTISRVEAGDEADYYCQVWDSSSDHVVFGGGTKLTVLG
Regarding B3, the binding result in test [1] was “no binding”. Further, in test [2], the “IC50 … Average” value worked out at 0.176 nM; the “IC50 … n = 1” value stood at 0.223 nM; the “IC50 … n = 2” value came to 0.144 nM; the “IC50 … n = 3” value was determined as 0.16 nM. The binding result in test [5] was “no binding”. Besides, in test [6], the binding result was “binds”. For the same molecule, in test [7], the binding result is given as “binds”.

For orientation: Kd means the constant that tells how readily two partners part at equilibrium. As a reminder, the koff is the first-order rate constant of dissociation. By kon is commonly meant a measure of how fast the partners come together.

Source of the values: patent US20100047253A1 (Amgen, published 2010).
